From patent US20200157194A1 (Regeneron, published 2020) come the findings set out here.

The Kd is a measure of binding affinity in units of concentration. A high value points to weaker binding. As a reminder, the koff is the first-order rate constant of dissociation. Lower therefore signals slow dissociation. What is called kon is the second-order rate constant of association. Low values mean slow association, high ones fast association. By IC50 is commonly meant the midpoint of a concentration-inhibition curve. Low values mean higher potency, high ones lower potency.

In assay [1] the target is T1, recombinant human GREM1 (hGREM1-His; C-terminal 10His tagged, R&D, #5190-GR) (human, UniProt O60565 25-184, limits assumed).
T1 sequence: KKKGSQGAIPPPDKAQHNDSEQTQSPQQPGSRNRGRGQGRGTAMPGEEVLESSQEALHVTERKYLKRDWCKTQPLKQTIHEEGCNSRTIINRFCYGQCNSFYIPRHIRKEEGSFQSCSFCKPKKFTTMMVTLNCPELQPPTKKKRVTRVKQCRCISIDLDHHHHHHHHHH
As to the kind of experiment: cell-based or functional assay.

In assay [2] the target is T1, recombinant human GREM1 (hGREM1-His; …). As to the kind of experiment: BLI Octet, mAb captured, 100 nM GREM1.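 Also: octet Red96 biolayer interferometry at 25 °C in pH 7.4 HEPES saline buffer, antibodies held on anti-human IgG Fc capture biosensors, then exposed to GREM1.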
Assay [3] shares this target. As to the kind of experiment: cell-based or functional assay. This is another data set of the same source.
The target is the same in assay [4]. Put plainly: BLI Octet, mAb captured, 100 nM GREM1 + 5 uM heparin.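 Also: octet Red96 biolayer interferometry at 25 °C, antibodies captured on anti-human IgG Fc biosensors, pH 7.4 HEPES buffer with 0.1 mg/mL BSA.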
Assay [5] addresses T2, human GREM1 (hGREM1-His; SEQ ID NO: 595) (human, UniProt O60565 25-184).
T2 construct: also called biotin-hGREM1-His; recombinant human GREM1 protein
T2 sequence: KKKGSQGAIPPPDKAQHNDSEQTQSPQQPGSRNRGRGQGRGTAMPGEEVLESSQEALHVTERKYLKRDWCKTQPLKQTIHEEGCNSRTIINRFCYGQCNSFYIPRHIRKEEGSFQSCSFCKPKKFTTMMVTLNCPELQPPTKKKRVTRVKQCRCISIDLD
As to the kind of experiment: SPR, Biacore T200, 37 C, mAb captured, hGREM1-His injected.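 Also: HBS-EP running buffer containing heparin, association and dissociation phases tracked, KD computed as koff over kon and half-life derived from koff.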 On the technique in general: SPR reads the build-up and loss of mass on a sensor chip optically.

For assay [6], the target named is T2, human GREM1 (hGREM1-His; SEQ ID NO: 595). As to the kind of experiment: SPR, Biacore T200, 25 C, mAb captured, hGREM1-His injected.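 Also: Heparin-supplemented HBS-EP+ used as running buffer, association and dissociation phases followed, Kd computed as koff divided by kon and half-life derived from koff.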
The target in assay [7] is T1, recombinant human GREM1 (hGREM1-His; …). Put plainly: BLI Octet, mAb captured, 100 nM GREM1 without vs with 5 uM heparin.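 Also: octet Red96 biolayer interferometry at 25 °C, antibodies captured on anti-human IgG Fc biosensors, association of GREM1 measured with versus without heparin in HEPES-buffered saline, pH 7.4.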
For assay [8], the target named is T2, human GREM1 (hGREM1-His; SEQ ID NO: 595). Put plainly: competition ELISA, biotin-hGREM1-His (100 pM) binding to coated hBMP4. Background: In an ELISA, binding on a coated surface is turned into a signal by an enzyme label.

B1: H4H2892N (antibody, human IgG4, V domains shown)
VH: QVQLVESGGGVVQPGRSLRLSCAASGFTFSSYGIHWVRQAPGKGLEWVAILWYDGSNKYYADSVKGRFTISRDNSKTTLYLQMNSLRAEDTAVYYCARENYNDLNFDLWGRGTLVTVSS
VL: DIQLTQSPSFLSASVGDRVTITCWASQGISSYLAWYQHKPGKAPKLLIYAASTLQSGVPSRFSGSGSGIEFTLTISSLQPEDFATYYCQQLKSYPPWTFGQGTKVEIR
notes: H4H prefix = human IgG4 Fc
For B1, the “hGREM1-His Inhibition IC50, M; W-20-17 cell differentiation assay (alkaline phosphatase)” value in assay [1] amounted to 4.4 nM. For the same molecule, in assay [2], the “Binding Signal with 30 sec Association” value was found to be 0.2 nm and the “Binding Signal with 300 sec Association” value turned out to be 0.49 nm. Moreover, the “IC50 [M], inhibition of hGREM1-His, W-20-17/BRE-luc luciferase (100 pM hBMP4, 10 nM hGREM1-His)” value (“IC50 [M], inhibition of hGREM1-His” for short) in assay [3] came to 9.5e-10 M. In assay [4], the “Binding Signal with 30 sec Association” value was 0.15 nm and the “Binding Signal with 300 sec Association” value was determined as 0.49 nm. In addition, in assay [5], binding was put at a Kd of 2.35 nM, the koff is 0.0004 s⁻¹, the kon stood at 171000 M⁻¹ s⁻¹ and the t1/2 turned out to be 29 min. In assay [6], this molecule gave a Kd of 1.22 nM, a koff of 0.000173 s⁻¹, a kon of 142000 M⁻¹ s⁻¹ and a t1/2 of 67 min. For the same molecule, in assay [7], the “Reduction in Signal from Heparin at 30 sec” value (shortened to “Reduction … at 30 sec”) came to 0.05 nm and the “Reduction in Signal from Heparin at 300 sec” value (shortened to “Reduction … at 300 sec”) came out at 0 nm. Besides, in assay [8], the “% blocked at maximum Ab tested (20 nM)” value was determined as 82% and the IC50 amounted to 0.17 nM.

B2: H4H2784N (antibody, human IgG4, V domains shown)
VH: QVQLVESGGGVVQPGRSLRLSCAASGFTFSSYGMHWVRQAPGKGLEWVTIIWHDGSNKYYADSVKGRFTISRDNSKNTLYLQMNSVRAEDTAVYYCARDEDFFDYWGQGTLVTVSS
VL: not shown
notes: H4H prefix = human IgG4 Fc
On to B2, for which the “hGREM1-His Inhibition IC50, M; W-20-17 cell differentiation assay (alkaline phosphatase)” value in assay [1] is 24 nM. Besides, in assay [2], the “Binding Signal with 30 sec Association” value was found to be 0.24 nm and the “Binding Signal with 300 sec Association” value is 0.52 nm. Also, in assay [3], the “IC50 [M], inhibition of hGREM1-His” value is 9.5e-10 M. Moreover, in assay [4], the “Binding Signal with 30 sec Association” value was 0.06 nm and the “Binding Signal with 300 sec Association” value turned out to be 0.46 nm. For the same molecule, in assay [5], the Kd worked out at 13.8 nM, the dissociation rate constant (koff) worked out at 0.00197 s⁻¹, the kon amounted to 142000 M⁻¹ s⁻¹ and the t1/2 turned out to be 6 min. Moreover, in assay [6], binding was put at a Kd of 17 nM, the koff came out at 0.00105 s⁻¹, the on-rate constant (kon) was 61800 M⁻¹ s⁻¹ and the t1/2 was determined as 11 min. In assay [7], the “Reduction … at 30 sec” value amounted to 0.18 nm and the “Reduction … at 300 sec” value was determined as 0.06 nm. For the same molecule, in assay [8], the “% blocked at maximum Ab tested (20 nM)” value worked out at 59% and the IC50 worked out at 0.45 nM.

B3: H2bM2783N (antibody, mouse IgG2, V domains shown)
VH: EVQLLESGGGLVQPGGSLRLSCAASGFTFSSYVMNWVRQAPGKGLEWVSAISGSGGSTYYADSVKGRSTISRDNSKNTLYLQMNSLRAEDTAIYYCAKGDIAAIVFDAFDIWGQGTVVTVSS
VL: DIQMTQSPSSLSASVGDRVTITCQASQDISSCLNWYQHKPGKAPKLLIYDASYLETGVPSRFSGSGSGTDFTFTISSLQPEDIATYYCQQYDNLPYTFGQGTKLEIK
notes: H2M prefix = mouse IgG2 Fc (here H2bM); also called H2M2783N
For the molecule B3, in assay [6], the Kd was 7.4 nM, the koff was 0.0015 s⁻¹, the kon is 202000 M⁻¹ s⁻¹ and the t1/2 came to 7.7 min.

B4: H4H2783N2 (antibody, human IgG4, V domains shown)
VH: EVQLLESGGGLVQPGGSLRLSCAASGFTFSSYVMNWVRQAPGKGLEWVSAISGSGGSTYYADSVKGRSTISRDNSKNTLYLQMNSLRAEDTAIYYCAKGDIAAIVFDAFDIWGQGTVVTVSS
VL: DIQMTQSPSSLSASVGDRVTITCQASQDISSALNWYQHKPGKAPKLLIYDASYLETGVPSRFSGSGSGTDFTFTISSLQPEDIATYYCQQYDNLPYTFGQGTKLEIK
notes: H4H prefix = human IgG4 Fc
Take B4: the “hGREM1-His Inhibition IC50, M; W-20-17 cell differentiation assay (alkaline phosphatase)” value in assay [1] amounted to 5.6 nM. Moreover, in assay [2], the “Binding Signal with 30 sec Association” value is 0.29 nm and the “Binding Signal with 300 sec Association” value was 0.47 nm. Moreover, the “IC50 [M], inhibition of hGREM1-His” value in assay [3] was 1.3e-09 M. In assay [4], the “Binding Signal with 30 sec Association” value was 0.01 nm and the “Binding Signal with 300 sec Association” value turned out to be 0.29 nm. In assay [5], this molecule displayed a Kd of 61.1 nM, a dissociation rate constant (koff) of 0.000849 s⁻¹, an on-rate constant (kon) of 13900 M⁻¹ s⁻¹ and a t1/2 of 14 min. Also, in assay [6], the Kd is 15.7 nM, the off-rate constant (koff) was found to be 0.000476 s⁻¹, the kon came out at 30400 M⁻¹ s⁻¹ and the t1/2 stood at 24 min. Further, in assay [7], the “Reduction … at 30 sec” value was 0.28 nm and the “Reduction … at 300 sec” value worked out at 0.18 nm. In assay [8], the “% blocked at maximum Ab tested (20 nM)” value came to 76% and the half-inhibitory concentration (IC50) is below 0.025 nM.

B5: H4H2780N (antibody, human IgG4, V domains shown)
VH: EVQLVESGGGLVKPGGSLRLSCAASGFTFSTYSMNWVRQAPGKGLEWVSSISSGSSYIYYTDSVKGRFTISRDNAKNSLYLQMNSLRAEDTAVYYCARFGSYYYFGFDVWGQGTTVTVSS
VL: DIQMTQSPSSLSASVGDRVTITCRASQGISNYLAWYQQKPGKVPKLLIFSASTLQSGVPSRFSGSGSGPDFTLTVSSLQPEDVATYYCQKYNSAPFAFGPGTKVDIK
notes: H4H prefix = human IgG4 Fc
As to B5, in assay [2], the “Binding Signal with 30 sec Association” value came to 0.13 nm and the “Binding Signal with 300 sec Association” value is 0.58 nm. Moreover, in assay [4], the “Binding Signal with 30 sec Association” value turned out to be 0.13 nm and the “Binding Signal with 300 sec Association” value is 0.58 nm. Moreover, in assay [5], binding was put at a Kd of 28 nM, the koff was determined as 0.00161 s⁻¹, the kon came to 57400 M⁻¹ s⁻¹ and the t1/2 is 7 min. In addition, in assay [6], the Kd came out at 12.4 nM, the koff was found to be 0.00088 s⁻¹, the association rate constant (kon) is 71200 M⁻¹ s⁻¹ and the t1/2 was 13 min. Besides, in assay [7], the “Reduction … at 30 sec” value came to 0 nm and the “Reduction … at 300 sec” value came to 0 nm. In assay [8], the “% blocked at maximum Ab tested (20 nM)” value turned out to be 69% and the IC50 stood at 0.1 nM.

B6: H4H2889N (antibody, human IgG4, V domains shown)
VH: QVQLQESGPGLVKPSETLSLTCTVSGGSISNSYWSWIRQPPGKGLEWIGYIYYSGNTNYNPSLKSRVTISVDTSKNQFSLKLSSVTAADTAVYYCARVNDYSNYDSYYYGMDVWGQGTTVTVSS
VL: AIQMTQSPSSLSASVGDRVTITCRASQGIRNDLGWYQQKPGKAPKLLIYAASSLQSGVPSRFSGSGSGTDFTLTISSLQPEDFATYYCLQDYNYPPTFGQGTKVDIK
notes: H4H prefix = human IgG4 Fc
Consider B6, for which the “hGREM1-His Inhibition IC50, M; W-20-17 cell differentiation assay (alkaline phosphatase)” value in assay [1] was found to be 5.4 nM. For the same molecule, in assay [2], the “Binding Signal with 30 sec Association” value was found to be 0.2 nm and the “Binding Signal with 300 sec Association” value amounted to 0.46 nm. Also, the “IC50 [M], inhibition of hGREM1-His” value in assay [3] came out at 1.2e-09 M. In assay [4], the “Binding Signal with 30 sec Association” value was 0.05 nm and the “Binding Signal with 300 sec Association” value was 0.44 nm. In addition, in assay [5], the affinity, expressed as Kd, was 4.06 nM; the koff is 0.000422 s⁻¹; the kon is 104000 M⁻¹ s⁻¹; the t1/2 was determined as 27 min. Moreover, in assay [6], binding was characterised by a dissociation constant (Kd) of 1.89 nM, the off-rate constant (koff) is 0.000118 s⁻¹, the kon came to 62700 M⁻¹ s⁻¹ and the t1/2 was found to be 98 min. Moreover, in assay [7], the “Reduction … at 30 sec” value is 0.15 nm and the “Reduction … at 300 sec” value is 0.02 nm. In assay [8], the “% blocked at maximum Ab tested (20 nM)” value came to 86% and the IC50 was below 0.025 nM.

B7: H4H6269P (antibody, human IgG4, V domains shown)
VH: QVQLQESGPGLVKPSQTLSLTCTVSGGSISSGGYYWTWIRQHPGKGLEWIGYIYYSGSTYYNPSLKSRVTMSVDTSKNQFSLKLSSVTAADTAVYYCARLLDFDYWGQGTLVTVSS
VL: AIQMTQSPSSLSASVGDRVTITCRASQGIRNDLGWYQQKPGKAPKLLIYAASSLQSGVPSRFSGSGSGRDFTLTISSLQPEDFASYYCLQDHNYPLTFGGGTKVEIK
notes: H4H prefix = human IgG4 Fc
In the case of B7, in assay [2], the “Binding Signal with 30 sec Association” value was 0.15 nm and the “Binding Signal with 300 sec Association” value was 0.6 nm. In assay [4], the “Binding Signal with 30 sec Association” value is 0.14 nm and the “Binding Signal with 300 sec Association” value came out at 0.52 nm. In assay [5], this molecule yielded a dissociation constant Kd of 1.98 nM, a koff of 0.000254 s⁻¹, a kon of 128000 M⁻¹ s⁻¹ and a t1/2 of 46 min. In assay [6], binding was put at a Kd of 0.625 nM, the koff turned out to be 6.32e-05 s⁻¹, the kon amounted to 101000 M⁻¹ s⁻¹ and the t1/2 stood at 183 min. For the same molecule, in assay [7], the “Reduction … at 30 sec” value is 0.01 nm and the “Reduction … at 300 sec” value worked out at 0.08 nm. For the same molecule, in assay [8], the “% blocked at maximum Ab tested (20 nM)” value is 73% and the half-inhibitory concentration (IC50) amounted to 0.026 nM.
